# Results taken from the supplement of paper PMC9732359.
# ± gives the uncertainty stated by the source.
# Assay: protein stability index of a GFP-peptide fusion (yeast GPS) (PSI 1-4); higher = more stable; sorted into four equal gates, so the index is relative within each strain
# Settings: pdr5∆
# Outline: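 The protein stability index combines read frequencies across sorting gates, each weighted by its gate number and then summed. To obtain those frequencies, a pooled yeast library of GFP fusions to tiled 17-residue yeast protein peptides, on a plasmid also expressing Cherry, was grown to mid-log phase in leucine-free medium. The cells were sorted into four equal gates by GFP/Cherry ratio before plasmid amplification by PCR and Illumina sequencing.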
row,Sequence,protein stability index
1,ILSLIEEAAGTKMFEDR [SMC2],3.19 ± 0.09
2,IMDNFLERTAIELKTDW [RPN1],2.99 ± 0.18
3,IMYQQMLKYRRLFIGDQ [SNF2],1.22 ± 0.04
4,INDKRANLMLVMLRLLL [SRB4],1.61 ± 0.047
5,INGWKFESLPLKSAENS [SWP82],3.25 ± 0.053
6,INKNSKIALREYINNCK [POP4],2.17 ± 0.098
7,INYAFSMDEEFKNMDCI [SIR3],3.22 ± 0.042
8,IPDFRSSEGFYSKIKHL [SIR2],2.21 ± 0.075
9,IPGEYITYALSGYVRSR [RPS21B],2.73 ± 0.095
10,IPKLKPAPINSLSRDFV [SNU114],2.8 ± 0.061
11,IPPTFDKGAVGPNNFIW [MED4],3.01 ± 0.084
12,IPSGNVWNYTFMGTAFN [PRP8],2.47 ± 0.16
13,IPSKNTPDASKPSFSFG [YLR335W/NUP2],3.14 ± 0.23
14,IPVNKRRGAHGSELSSK [SIR3],3.03 ± 0.15
15,IQFLTIGAGVPSLEVAS [FAS1],1.24 ± 0.056
16,IQIFRAHLWQKIHESIV [PRP8],2.52 ± 0.09
17,IQISKLHYTPIEDLWQF [RPC82],2.27 ± 0.13
18,IQLIKILNSHFDALRSL [YJL041W/NSP1],2.4 ± 0.039
19,IQLNGGSISEKVDWARE [RPL3],2.96 ± 0.12
20,IQQLHSVLNPFLLRRVK [ISW2],1.99 ± 0.05
21,IQQVVEYADNDEDKFKK [PRP28],3.03 ± 0.093
22,IQSAESIKSQKEEISDQ [SWI3],3.08 ± 0.14
23,IQTKEQVSINSNKILVY [YIL149C/MLP2],2.75 ± 0.17
24,IRARIPFYGSYTETDPA [SRP54],2.91 ± 0.082
25,IRGAVGNSEAIPGLSAG [RTT102],3.36 ± 0.068
26,IRNVIMSASNANDFQLT [SRB8],2.34 ± 0.058

row,Sequence,protein stability index
1,IRPLSKPMTAYARADTH [RRP6],2.9 ± 0.083
2,IRQAIAKGLVAYHQKYV [RPS16A],1.27 ± 0.069
3,IRRYCDVVAHRQLAGAI [DIS3],2.2 ± 0.065
4,IRTQVNTGGESVVKKED [RGR1],3.5 ± 0.093
5,IRVTNSFALPFEEDEKN [RPN8],2.48 ± 0.046
6,ISDDDDSALRYSILGDR [POP4],2.97 ± 0.093
7,ISIDSWPTTHKYPLGHF [DIS3],2.74 ± 0.11
8,ISIFSTPGSVSLSAYNL [PRP8],2.46 ± 0.09
9,ISKQRTFAVILFLIIQC [YMR129W/POM152],1.38 ± 0.067
10,ISLYLLNLLSQNNTTKF [RPN12],1.72 ± 0.054
11,ISSGLLYLQDSNDKFVH [SRB8],1.48 ± 0.13
12,ISTRERDYLVDTLKLRE [RRP6],2.72 ± 0.061
13,ISVGLYDTTPLLDTNSL [SKI6],2.88 ± 0.13
14,ISVTRQVVLGGTSKYLI [SMC2],2.96 ± 0.14
15,ISYTSHIEGVVILKKNP [RPN1],3.14 ± 0.078
16,ITKDHKVLARQQLQVLA [FAS2],1.45 ± 0.062
17,ITKLHLDKDRKALIQRK [RPL26A],1.92 ± 0.094
18,ITKLLEINLSKIFQTTP [YCS4],2.23 ± 0.044
19,ITQIVEKDFCTSCLQNN [SRB8],2.71 ± 0.077
20,ITSLYALIRRDFTLIPR [CDC53],1.28 ± 0.071
21,ITVVLGVNGYIWLRKTS [RRP4],1.62 ± 0.12
22,ITYTPVRHGRAGATTSR [RPS15],2.24 ± 0.081
23,IVDKYIGESARIIREMF [RPT4],2.6 ± 0.088
24,IVGKSNVLVTMPVAPTM [YMR129W/POM152],2.56 ± 0.08
25,IVGPDLAVLALVIVKKG [RPS6A],1.34 ± 0.048
26,IVPIFQLISAVLVSMGS [YJL039C/NUP192],2.39 ± 0.28

row,Sequence,protein stability index
1,IVPLTEGDIQVLKSYGA [RPT1],3.14 ± 0.11
2,IVPVISTIENVLFYIGR [COB],1.68 ± 0.042
3,IVQELLDKNLIKLVKQN [RPC34],1.99 ± 0.058
4,IVSFIVNCFHEDTELYQ [YJL039C/NUP192],1.71 ± 0.051
5,IYAGFGRDTTDYLKNII [RPN2],2.75 ± 0.21
6,IYEKLKNYLKNYILNFK [CDC53],1.32 ± 0.055
7,IYEVDITVHAPLLPIVE [SNU114],2.29 ± 0.056
8,IYKRGQAGVTKASVTIV [SMC2],1.73 ± 0.083
9,IYLLFQSSGKLKEYLDL [YDL116W/NUP84],2.44 ± 0.052
10,IYSPLHSFIKMLQMKGK [SIR2],1.79 ± 0.058
11,KADDDSVTIISAGNDKM [ASC1],2.92 ± 0.11
12,KAEIPPEYAKVGDFLLQ [SIN4],1.93 ± 0.06
13,KAKAQAQAQAQAQAQVY [PGD1],3.26 ± 0.088
14,KAKFTSLAVRSLQDRSS [YCS4],2.3 ± 0.05
15,KALPMLEQVEFEKNTIL [MED4],3.04 ± 0.083
16,KANIFQVIKNEVCAKMP [SSN2],2.27 ± 0.084
17,KAPKIQRLVTPQRLQRK [RPS6A],2.95 ± 0.049
18,KARTNLHQHVVLKCLKS [RPC34],2.64 ± 0.16
19,KASLLLHVLVAHKLKKS [FAS2],1.27 ± 0.043
20,KATAAKKAVVKGTNGKK [RPL25],2.05 ± 0.1
21,KCFDDIEPHIFDQLIEW [YCG1],3.1 ± 0.081
22,KCIKYSEKLITKYFEPT [ECM29],3.03 ± 0.13
23,KCIPKKGTVFQFEIPIS [POP4],1.68 ± 0.087
24,KCSTRGLSTDHTTQIVN [YML103C/NUP188],2.9 ± 0.085
25,KDDRFVPVRKFKGNNGV [RPN2],2.77 ± 0.09
26,KDEPVQNDILQESFINT [FAS2],3.14 ± 0.12

row,Sequence,protein stability index
1,KDERDTWIHSEIEELKS [SMC3],3.02 ± 0.097
2,KDKGVYVVTSDEHPKTL [SIR2],3.24 ± 0.075
3,KDNDKNLKFLKNKDSLV [SRB4],3.21 ± 0.12
4,KDNGMLIIDGQIIFGVV [RPO21],1.79 ± 0.076
5,KDNVEHLVMRAISLGLL [RPN9],2.92 ± 0.074
6,KDRISSCSSKEKTLVLE [SMC4],2.6 ± 0.083
7,KDTTGPKAISNFLIKLS [YCS4],2.08 ± 0.1
8,KEDKSEAIDGNGEIKGE [SNF2],2.81 ± 0.083
9,KEIDPSQTTQLAGMDVE [FAS2],3.28 ± 0.11
10,KEKKELQMRLKESEISH [YIL149C/MLP2],2.94 ± 0.17
11,KELELERKEREDFQKRQ [SWI1],3.22 ± 0.078
12,KELTRIPGEEVEETEVP [MED4],3.23 ± 0.21
13,KEQENITIQDLLFPKST [DPB4],2.64 ± 0.13
14,KERISVAAASKILSNLV [PRE2],2.69 ± 0.041
15,KERLTKEAAAVAEGKSK [RPL8A],2.74 ± 0.22
16,KERSDGKRHIFDVNTLC [CDC53],1.76 ± 0.062
17,KESAVISKQKSKLDYIF [SMC1],2.81 ± 0.11
18,KESDDPSIPLVIIRRLK [POP1],2.07 ± 0.064
19,KEYISRLWHTLKYYQDL [SNF5],1.55 ± 0.06
20,KFDIIIVDTSGRHHQEE [SRP54],2.94 ± 0.046
21,KFFHNGMIYNKLFVSKE [FAS2],2.54 ± 0.086
22,KFFRVKYENKISTVIEV [SMC3],1.2 ± 0.11
23,KFHKREVVEAVTVVDTP [RPL3],1.55 ± 0.066
24,KFKRHHSDRYHRVAENW [RPL32],3.21 ± 0.065
25,KFLQEFINLLLNCCGSV [IRR1],1.74 ± 0.091
26,KFPPPTPLLENISISTS [BRR2],1.84 ± 0.056
